Experiment [1] has as its target IgG1 Fc/Fc monospecific antibody. The experiment in a line: flow cytometry sandwich: antibody displayed on cells by CSCP ScFv-FcγR, hFc block, FITC-labeled Ab6 as detection molecule. In general terms: A flow cytometer gives signals particle by particle.
Experiment [2] concerns the target IgG4 Fc/Fc monospecific antibody. The experiment is described as above.
The target in experiment [3] is IgG1 Fc/Fc* bispecific antibody. Described as above.
In experiment [4] the target is IgG4 Fc/Fc* bispecific antibody. The description is as above.
Experiment [5] addresses IgG1 Fc*/Fc* monospecific antibody. The experiment in a line: flow cytometry sandwich: antibody displayed on cells by CSCP FcγR, labeled Ab6 as detection molecule.
Experiment [6] deals with IgG1 Fc/Fc monospecific antibody. Described as above.
Experiment [7] deals with IgG1 Fc/Fc* bispecific antibody. Described as above.
The next experiment has as its target T1, human Fc* homodimer (human).
T1 construct: also called Fc*/Fc*; human ΔAdpFc polypeptide
In words: SPR (Biacore 2000); mAb captured on anti-mouse-Fc surface, Fc dimer injected; 1:1 fit. (In general: Surface plasmon resonance follows binding to a sensor surface in real time, without labels.)

For experiment [8], the target named is IgG1 Fc/Fc monospecific antibody. The experiment in a line: flow cytometry sandwich: antibody displayed on cells by CSCP FcγR, labeled Ab2 as detection molecule.
Experiment [9] addresses IgG4 Fc/Fc monospecific antibody. The description is as above.
The target of experiment [10] is IgG4 Fc*/Fc* monospecific antibody. The description is as above.
Experiment [11] has as its target IgG1 Fc/Fc* bispecific antibody. The experiment is described as above.
The target in experiment [12] is IgG4 Fc/Fc* bispecific antibody. The description is as above.
For the next experiment, the target named is T2, Tie2 (UniProt Q02763 23-748, limits assumed).
T2 construct: also called Tie2 receptor
The experiment in a line: BIAcore.

The values below come from patent US20210009714A1 (Regeneron, published 2021).

One may read the Kd as the equilibrium constant for the complex coming apart. Low readings indicate higher affinity, high ones lower affinity.

T2 sequence (Q02763 23-748 limits assumed): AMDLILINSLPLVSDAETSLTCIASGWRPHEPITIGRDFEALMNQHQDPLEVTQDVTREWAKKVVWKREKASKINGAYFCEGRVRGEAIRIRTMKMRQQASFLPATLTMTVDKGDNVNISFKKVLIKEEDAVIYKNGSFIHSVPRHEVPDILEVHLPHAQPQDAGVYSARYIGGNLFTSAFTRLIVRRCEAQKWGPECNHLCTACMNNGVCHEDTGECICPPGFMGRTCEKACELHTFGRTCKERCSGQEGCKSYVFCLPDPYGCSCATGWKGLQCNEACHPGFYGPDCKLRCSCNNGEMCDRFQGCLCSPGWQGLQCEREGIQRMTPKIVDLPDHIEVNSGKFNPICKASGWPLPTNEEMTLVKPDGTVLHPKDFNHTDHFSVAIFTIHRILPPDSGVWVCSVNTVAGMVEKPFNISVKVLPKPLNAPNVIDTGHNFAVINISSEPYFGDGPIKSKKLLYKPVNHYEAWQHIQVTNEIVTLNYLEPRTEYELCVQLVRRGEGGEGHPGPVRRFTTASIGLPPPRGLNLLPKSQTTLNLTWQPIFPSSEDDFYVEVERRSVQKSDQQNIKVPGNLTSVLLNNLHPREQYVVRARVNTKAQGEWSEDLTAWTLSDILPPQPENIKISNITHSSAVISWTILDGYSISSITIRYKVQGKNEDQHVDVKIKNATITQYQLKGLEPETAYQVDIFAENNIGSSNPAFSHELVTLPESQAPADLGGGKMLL
Description for human Fc* homodimer: Measurements to determine binding affinities and kinetic constants were made on a Biacore 2000 instrument. […] Kinetic association (kₐ) and dissociation (kd) rate constants were determined by processing and fitting the data to a 1:1 binding model using Scrubber 2.0 curve fitting software.

B1: Ab6 (antibody, mouse IgG2a, kappa, V domains shown)
VH: EVQLVESGGAIVKPGGSHRVSCEASGFTFSNAWMSWVRQAPGRGLEWVGRILSKTDGGTTDYAAPVKDRFTISRDDSKNMLFLQMDSLKIEDTAVYFCTTADFWSAYSSDYWGQGTLVTVSS
VL: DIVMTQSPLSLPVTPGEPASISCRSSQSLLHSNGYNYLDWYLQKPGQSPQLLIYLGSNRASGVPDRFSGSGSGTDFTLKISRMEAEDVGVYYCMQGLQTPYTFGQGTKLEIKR
notes: also called Fc*-specific Ab6; Ab6 anti-Fc* antibody
Regarding B1, the MFI in experiment [1] was found to be 15; in experiment [2] it was 15; in experiment [3] it was 500; in experiment [4], 500; in [5], 200; in [6], 200. This molecule also yielded an MFI in experiment [7] of 200. Also, in the experiment with human Fc* homodimer, the t1/2 came out at 19 min.

B2: Ab2 (antibody, V domains shown)
VH: QLQQSGAELAKPGASVKMSCKASGYTFTNYWIHWEKQRPEQGLEWIGYINPNTGHTEYNQKFKDKATLTADRSSSTAYMQLSSLTSEDSAVYFCARTYSGSSHFDYWGQGTTL
VL: DIVMTQTPVSLPVSLGDQASISCRSSQSLVHNNGDTFLHWYLQKPGQSPKLLIYKVSNRFSGVPDRFSGSGSGTDFTLKISRVEAEDLGVYFCSQTTLIPRTFGGGTKLEI
notes: Monoclonal from Velocimmune mice, captured on an anti-mouse-Fc surface in the SPR study; also called Fc-specific Ab2; Ab2 anti-Fc antibody
For B2, the MFI is 350 in [8]; 200 in experiment [9]; 200 in [10]; 500 in experiment [11]; 200 in experiment [12].

B3: FD1-hFc (Fc fusion, UniProt Q15389 277-498, looked up)
chain: REEEKPFRDCADVYQAGFNKSGIYTIYINNMPEPKKVFCNMDVNGGGWTVIQHREDGSLDFQRGWKEYKMGFGNPSGEYWLGNEFIFAITSQRQYMLRIELMDWEGNRAYSQYDRFHIGNEKQNYRLYLKGHTGTAGKQSSLILHGADFSTKDADNDNCMCKCALMLTGGWWFDACGPSNLNGMFYTAGQNHGKLNGIKWHYFKGPSYSLRSTTMMIRPLDF
notes: also called FD1-Fc; not shown: hFc
B3 displayed a Kd with Tie2 of 174 nM.
